According to publication PMC2654718:

Experiments:
[1] = target: MBP-VDR-LBDmt (human); experiment: ITC
[2] = target: MBP-VDR-LBDmt (human); experiment: pull-down

Kd [1] [nM]	dH [1] [kcal/mol]	stoichiometry N [1]	peptide concentration at which inhibition of SRC2-VDR binding was observed [2] [µM]	Substance
285	-2.2	0.93	–	SRC2-3 peptide, Texas Red labeled
174	-6.7	1.02	–	SRC2-3 peptide, unlabeled
–	–	–	> 50	SRC3-1 peptide, unlabeled
